IntAct's records for PubMed 25966461

B1: Protein SSD1 (Saccharomyces cerevisiae), P24276 (parent)
chain: MSKNSNVNNNRSQEPNNMFVQTTGGGKNAPKQIHVAHRRSQSELTNLMIEQFTLQKQLEQVQAQQQQLMAQQQQLAQQTGQYLSGNSGSNNHFTPQPPHPHYNSNGNSPGMSAGGSRSRTHSRNNSGYYHNSYDNNNNSNNPGSNSHRKTSSQSSIYGHSRRHSLGLNEAKKAAAEEQAKRISGGEAGVTVKIDSVQADSGSNSTTEQSDFKFPPPPNAHQGHRRATSNLSPPSFKFPPNSHGDNDDEFIATSSTHRRSKTRNNEYSPGINSNWRNQSQQPQQQLSPFRHRGSNSRDYNSFNTLEPPAIFQQGHKHRASNSSVHSFSSQGNNNGGGRKSLFAPYLPQANIPELIQEGRLVAGILRVNKKNRSDAWVSTDGALDADIYICGSKDRNRALEGDLVAVELLVVDDVWESKKEKEEKKRRKDASMQHDLIPLNSSDDYHNDASVTAATSNNFLSSPSSSDSLSKDDLSVRRKRSSTINNDSDSLSSPTKSGVRRRSSLKQRPTQKKNDDVEVEGQSLLLVEEEEINDKYKPLYAGHVVAVLDRIPGQLFSGTLGLLRPSQQANSDNNKPPQSPKIAWFKPTDKKVPLIAIPTELAPKDFVENADKYSEKLFVASIKRWPITSLHPFGILVSELGDIHDPDTEIDSILRDNNFLSNEYLDQKNPQKEKPSFQPLPLTAESLEYRRNFTDTNEYNIFAISELGWVSEFALHVRNNGNGTLELGCHVVDVTSHIEEGSSVDRRARKRSSAVFMPQKLVNLLPQSFNDELSLAPGKESATLSVVYTLDSSTLRIKSTWVGESTISPSNILSLEQLDEKLSTGSPTSYLSTVQEIARSFYARRINDPEATLLPTLSLLESLDDEKVKVDLNILDRTLGFVVINEIKRKVNSTVAEKIYTKLGDLALLRRQMQPIATKMASFRKKIQNFGYNFDTNTADELIKGVLKIKDDDVRVGIEILLFKTMPRARYFIAGKVDPDQYGHYALNLPIYTHFTAPMRRYADHVVHRQLKAVIHDTPYTEDMEALKITSEYCNFKKDCAYQAQEQAIHLLLCKTINDMGNTTGQLLTMATVLQVYESSFDVFIPEFGIEKRVHGDQLPLIKAEFDGTNRVLELHWQPGVDSATFIPADEKNPKSYRNSIKNKFRSTAAEIANIELDKEAESEPLISDPLSKELSDLHLTVPNLRLPSASDNKQNALEKFISTTETRIENDNYIQEIHELQKIPILLRAEVGMALPCLTVRALNPFMKRV
B2: Serine/threonine-protein kinase CBK1 (Saccharomyces cerevisiae), P53894 (parent)
chain: MYNSSTNHHEGAPTSGHGYYMSQQQDQQHQQQQQYANEMNPYQQIPRPPAAGFSSNYMKEQGSHQSLQEHLQRETGNLGSGFTDVPALNYPATPPPHNNYAASNQMINTPPPSMGGLYRHNNNSQSMVQNGNGSGNAQLPQLSPGQYSIESEYNQNLNGSSSSSPFHQPQTLRSNGSYSSGLRSVKSFQRLQQEQENVQVQQQLSQAQQQNSRQQQQQLQYQQQQQQQQQQQHMQIQQQQQQQQQQQQSQSPVQSGFNNGTISNYMYFERRPDLLTKGTQDKAAAVKLKIENFYQSSVKYAIERNERRVELETELTSHNWSEERKSRQLSSLGKKESQFLRLRRTRLSLEDFHTVKVIGKGAFGEVRLVQKKDTGKIYAMKTLLKSEMYKKDQLAHVKAERDVLAGSDSPWVVSLYYSFQDAQYLYLIMEFLPGGDLMTMLIRWQLFTEDVTRFYMAECILAIETIHKLGFIHRDIKPDNILIDIRGHIKLSDFGLSTGFHKTHDSNYYKKLLQQDEATNGISKPGTYNANTTDTANKRQTMVVDSISLTMSNRQQIQTWRKSRRLMAYSTVGTPDYIAPEIFLYQGYGQECDWWSLGAIMYECLIGWPPFCSETPQETYRKIMNFEQTLQFPDDIHISYEAEDLIRRLLTHADQRLGRHGGADEIKSHPFFRGVDWNTIRQVEAPYIPKLSSITDTRFFPTDELENVPDSPAMAQAAKQREQMTKQGGSAPVKEDLPFIGYTYSRFDYLTRKNAL
partner: B1 chain
B3: Metallothionein expression activator (Saccharomyces cerevisiae), P21192 (parent)
chain: MDNVVDPWYINPSGFAKDTQDEEYVQHHDNVNPTIPPPDNYILNNENDDGLDNLLGMDYYNIDDLLTQELRDLDIPLVPSPKTGDGSSDKKNIDRTWNLGDENNKVSHYSKKSMSSHKRGLSGTAIFGFLGHNKTLSISSLQQSILNMSKDPQPMELINELGNHNTVKNNNDDFDHIRENDGENSYLSQVLLKQQEELRIALEKQKEVNEKLEKQLRDNQIQQEKLRKVLEEQEEVAQKLVSGATNSNSKPGSPVILKTPAMQNGRMKDNAIIVTTNSANGGYQFPPPTLISPRMSNTSINGSPSRKYHRQRYPNKSPESNGLNLFSSNSGYLRDSELLSFSPQNYNLNLDGLTYNDHNNTSDKNNNDKKNSTGDNIFRLFEKTSPGGLSISPRINGNSLRSPFLVGTDKSRDDRYAAGTFTPRTQLSPIHKKRESVVSTVSTISQLQDDTEPIHMRNTQNPTLRNANALASSSVLPPIPGSSNNTPIKNSLPQKHVFQHTPVKAPPKNGSNLAPLLNAPDLTDHQLEIKTPIRNNSHCEVESYPQVPPVTHDIHKSPTLHSTSPLPDEIIPRTTPMKITKKPTTLPPGTIDQYVKELPDKLFECLYPNCNKVFKRRYNIRSHIQTHLQDRPYSCDFPGCTKAFVRNHDLIRHKISHNAKKYICPCGKRFNREDALMVHRSRMICTGGKKLEHSINKKLTSPKKSLLDSPHDTSPVKETIARDKDGSVLMKMEEQLRDDMRKHGLLDPPPSTAAHEQNSNRTLSNETDAL

Variants of: B1
Details: with cbk1_yeast CBK1, P53894

Variant | effect of a mutation on the interaction
K212S | disrupting interaction strength
K212F | disrupting interaction strength
K212T | disrupting interaction strength
K212M | disrupting interaction strength
K212D | disrupting interaction strength
K212A | disrupting interaction strength
K212Q | disrupting interaction strength
F211W | disrupting interaction strength
F211A | disrupting interaction strength

Results, then the variant that gave them:

effect of a mutation on the interaction | Variant
disrupting interaction strength | F213Y
disrupting interaction strength | F213W
disrupting interaction strength | F213A
disrupting interaction strength | P214A

Variants of: B2
Details: with ssd1_yeast SSD1, P24276

effect of a mutation on the interaction | Variant
disrupting interaction strength | Y687A

Variants of: B3
Details: with cbk1_yeast CBK1, P53894

effect of a mutation on the interaction | Variant
disrupting interaction strength | Y283A
decreasing interaction strength | N277A
disrupting interaction strength | F285A
decreasing interaction strength | I272A
disrupting interaction strength | P286A
